The values below come from paper PMC4660058.

pKd: −log10 of the molar value.

The target in test [1] is CP-capped actin filament barbed end (BC) (rabbit | not stated) (UniProt P68135). The experiment in a line: microfluidics-assisted single-filament fluorescence microscopy (kinetics of elongation changes); set-up #2: biotin-SNAP-mDia1 anchored on neutravidin coverslip, insertional barbed-end assembly; exposed to CP + unlabelled PA, then PA alone; detachment = BFC→BC+F, resumed growth = BFC→BF+C; F-buffer pH 7.8, 50 mM KCl, room temperature.

For test [2] the target is unchanged. The experiment in a line: microfluidics-assisted single-filament fluorescence microscopy (kinetics of elongation changes); set-up #1: CP-capped barbed ends (BC) exposed to formin without PA for T_(expo) (BC+F→BCF), then PA alone (constants 'from BCF'); k′+F from a fit, not measured directly; F-buffer pH 7.8, 50 mM KCl, room temperature.
For test [3] the target is unchanged. The experiment in a line: microfluidics-assisted single-filament fluorescence microscopy (kinetics of elongation changes); set-up #1: formin-bound barbed ends (BF) exposed to CP + PA (BF+C→BFC), then PA alone (constants 'from BFC'); unlabelled formin; F-buffer pH 7.8, 50 mM KCl, room temperature.
For test [4], the target named is actin filament free barbed end (B) (rabbit) (UniProt P68135). The experiment in a line: microfluidics-assisted single-filament fluorescence microscopy (kinetics of elongation changes); set-up #1: filaments from surface-anchored spectrin–actin seeds, free barbed ends exposed to flows of CP or formin with profilin-actin (1 μM actin, 4 μM profilin); off-rates in PA alone; F-buffer pH 7.8, 50 mM KCl, room temperature; KD from the rate constants.

The pKd is the Kd on a negative log10 scale, so that one unit is a factor of ten. In general, koff refers to the rate constant with which the complex falls apart. By kon is commonly meant the rate constant with which the complex forms. High values mean faster complex formation, low ones slower complex formation.

Consider “biotinylated SNAP-mDia1(FH1–FH2–DAD)-His (from UniProt O60610 1-1272) (domain or fragment)”, for which, in test [1], the pKd is 8.40.
In test [2], “FH1–FH2–DAD domain of human formin mDia1 (unlabelled) (from UniProt O60610 583-1272) (domain or fragment)” showed a koff of 0.0062 s⁻¹ and a kon of 1.6e+06 M⁻¹ s⁻¹. Further, in test [3], the pKd was 8.40 to 8.52 and the dissociation rate constant (koff) stood at 0.0042 s⁻¹.
On to “GST–FH1(8P)–FH2–C of formin FMNL2 (from UniProt Q96PY5-3 1-1092) (domain or fragment)”, for which the kon in test [4] amounted to 1.54e+06 M⁻¹ s⁻¹. In test [2], this substance displayed a koff of 0.0094 s⁻¹ and a kon of 115000 M⁻¹ s⁻¹.
